Results: PMC4978918

Assays:
Assay in all cases: co-IP; anti-V5 IP of Scc4-3V5 or scc4-RID-3V5 from yeast extracts, cells at midlog phase in YPD at 23°, IPH50 buffer (50 mM Tris pH 8.0, 50 mM NaCl, 5 mM EDTA, 0.5% NP-40), 4°; blot with anti-Myc (Scc2) or anti-HA (Smc1)
[1] = target: scc4-L305ins-3V5 (S. cerevisiae) (UniProt P40090)
[2] = target: scc4-L490ins-3V5 (S. cerevisiae) (UniProt P40090)
[3] = target: scc4-S505ins-3V5 (S. cerevisiae) (UniProt P40090)
[4] = target: scc4-V485ins-3V5 (S. cerevisiae) (UniProt P40090)

Measured: co-precipitation, percent of the wild-type level

B1: Scc2-12Myc (natural protein)
chain: MSYPGKDKNIPGRIIEALEDLPLSYLVPKDGLAALVNAPMRVSLPFDKTIFTSADDGRDVNINVLGTANSTTSSIKNEAEKERLVFKRPSNFTSSANSVDYVPTNFLEGLSPLAQSVLSTHKGLNDSINIEKKSEIVSRPEAKHKLESVTSNAGNLSFNDNSSNKKTKTSTGVTMTQANLAEQYLNDLKNILDIVGFDQNSAEIGNIEYWLQLPNKKFVLTTNCLTKLQMTIKNITDNPQLSNSIEITWLLRLLDVMVCNIKFSKSSLKMGLDDSMLRYIALLSTIVLFNIFLLGKNDSNLHRESYIMEPVNFLSDLIESLKILTIEYGSLKIEFDTFQEALELLPKYIRNGPFLDDNVTAKLVYIFSDLLMNNDIEATTNIQFQSFWDNVKRISSDILVSLFGSFDQQRGFIIEELLSHIEKLPTKRIQKKLRKVGNQNIYITDFTFTLMSMLENINCYSFCNQMKDIAPENIDLLKNEYKKQEEFLFNIVEHINDTILERFFKNPSALRYVIDNFVQDLLLLISSPQWPVTEKILSSLLKRLLSVYSPSMQVSANIETICLQLIGNIGSTIFDIKCSTRDHEDNNLIKMINYPETLPHFFKSFEECIAYNETIKCRRSATRFLWNLRLGTILILEEYTKDAKEQIITVDNELKKILEQIKDGGLGPELENREADFSTIKLDYFSILHAFELLNLYDPYLKLILSLLAKDKIKLRSTAIKCLSMLASKDKVILSNPMVKETIHRRLNDSSASVKDAILDLVSINSSYFEFYQQINNNYNDDSIMVRKHVLRINEKMYDETNDIVTKVYVIARILMKIEDEEDNIIDMARLILLNRWILKVHEVLDQPEKLKEISSSVLLVMSRVAIMNEKCSQLFDLFLNFYLLNKEAHSKEAYDKITHVLTILTDFLVQKIVELNSDDTNEKNSIVDKQNFLNLLAKFADSTVSFLTKDHITALYPYMVSDEKSDFHYYILQVFRCTFEKLANFKQKFLYDLETTLLSRLPKMNVREIDEAMPLIWSVATHRHDTARVAKACSSCLSHLHPYINKANNEEAAIVVDGKLQRLIYLSTGFARFCFPKPSNDKIAFLQEGETLYEHITKCLLVLSKDKITHVIRRVAVKNLTKLCGNHPKLFNSRHVLHLLDKEFQSDQLDIKLVILESLYDLFLLEERKSVRNTGVNSTLSSNSILKKKLLKTNRVEFANDGVCSALATRFLDNILQLCLLRDLKNSLVAIRLLKLILKFGYTNPSHSIPTVIALFASTSQYIRHVAYELLEDLFEKYETLVFSSLSRGVTKAIHYSIHTDEKYYYKHDHFLSLLEKLCGTGKKNGPKFFKVLKRIMQSYLDDITDLTSTNSSVQKSIFVLCTNISNITFVSQYDLVSLLKTIDLTTDRLKEVIMDEIGDNVSSLSVSEEKLSGIILIQLSLQDLGTYLLHLYGLRDDVLLLDIVEESELKNKQLPAKKPDISKFSAQLENIEQYSSNGKLLTYFRKHVKDT
50%: all assays above
